Test results from article PMC4797271, “The quorum-sensing regulator ComA from Bacillus subtilis activates transcription using topologically distinct DNA motifs” (Nucleic Acids Research, 2015).

Target: T1, sigma-factor σ^A from Bacillus subtilis (Bacillus subtilis W168, UniProt P06224 1-371)
T1 construct: RNA polymerase sigma factor A (house-keeping sigma factor), Bacillus subtilis W168; gene amplified from the chromosome and cloned into pBAD18; also called house-keeping sigma-factor σ^A; σ^A-subunit of RNAP; source: E. coli, pBAD18, purified on Ni-NTA columns
T1 sequence (P06224 whole entry): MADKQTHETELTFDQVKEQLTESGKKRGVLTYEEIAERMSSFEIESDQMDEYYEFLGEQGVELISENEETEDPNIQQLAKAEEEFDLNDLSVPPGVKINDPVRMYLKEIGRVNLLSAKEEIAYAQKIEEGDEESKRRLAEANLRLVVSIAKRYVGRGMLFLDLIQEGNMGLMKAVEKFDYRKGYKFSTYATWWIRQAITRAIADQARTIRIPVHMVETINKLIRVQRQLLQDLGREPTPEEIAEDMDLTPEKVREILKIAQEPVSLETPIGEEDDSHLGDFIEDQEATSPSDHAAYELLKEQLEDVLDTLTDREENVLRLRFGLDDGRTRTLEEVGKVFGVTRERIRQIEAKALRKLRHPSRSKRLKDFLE
Test: native gel or EMSA; super-shift of ComA-bound biotinylated rapA promoter DNA (ComA at full occupancy) on adding α or σ^A; 10 mM HEPES pH 7.6, 2 mM MgCl2, 0.1 mM EDTA, 200 mM KCl, 5 mM DTT, 10% glycerol; 20 min at room temperature; native 8% polyacrylamide gel, 0.5x TBE
Settings: both partners purified

binding result: binds
B1: ComA from Bacillus subtilis (His6-tagged ComA protein) (natural protein, Bacillus subtilis W168, UniProt P14204 1-214, looked up)
chain: MKKILVIDDHPAVMEGTKTILETDSNLSVDCLSPEPSEQFIKQHDFSSYDLILMDLNLGGEVNGMELSKQILQENPHCKIIVYTGYEVEDYFEEAIRAGLHGAISKTESKEKITQYIYHVLNGEILVDFAYFKQLMTQQKTKPAPSSQKEQDVLTPRECLILQEVEKGFTNQEIADALHLSKRSIEYSLTSIFNKLNVGSRTEAVLIAKSDGVL
notes: Transcription factor ComA, Bacillus subtilis W168; gene amplified from the chromosome and cloned into pBAD18; At full occupancy the rapA promoter probably carries more than one dimer; also called recombinant His6-tagged ComA; source: E. coli, pBAD18, purified on Ni-NTA columns; not shown: His6, N-terminal, kept
